Measurements as given in US20140087995A1 (published 2014).
Blank lines part the entries; values can stand above or below the binder they belong to. Numbered stars: 1 amine (or outer) side, 2 acyl side, 3 side chain; on linkers, the order of the positions; unused ones are H or OH. Bridge positions count the residues as written; N and C are the ends. Side chains are listed from the residue outwards. Ends that are not written are not given here. * marks the point of attachment. C20 diacid = O=C(O)CCCCCCCCCCCCCCCCCCC(=O)*; γGlu = O=C(O)[C@H](CCC(=O)[*:2])N[*:1]; AEEA = NCCOCCOCC(=O)O

How the values were obtained:
rat calcitonin receptor [1] = target: T1, rat calcitonin receptor (rat, UniProt P32214 25-516); assay: ratio IC50 rat calcitonin receptor / IC50 rat amylin receptor
T1 construct: whole, on cells; Cell membranes of transiently transfected BHK tk'ts 13 cells (Assay VIII); also called rCTR; rCT
T1 sequence (looked up): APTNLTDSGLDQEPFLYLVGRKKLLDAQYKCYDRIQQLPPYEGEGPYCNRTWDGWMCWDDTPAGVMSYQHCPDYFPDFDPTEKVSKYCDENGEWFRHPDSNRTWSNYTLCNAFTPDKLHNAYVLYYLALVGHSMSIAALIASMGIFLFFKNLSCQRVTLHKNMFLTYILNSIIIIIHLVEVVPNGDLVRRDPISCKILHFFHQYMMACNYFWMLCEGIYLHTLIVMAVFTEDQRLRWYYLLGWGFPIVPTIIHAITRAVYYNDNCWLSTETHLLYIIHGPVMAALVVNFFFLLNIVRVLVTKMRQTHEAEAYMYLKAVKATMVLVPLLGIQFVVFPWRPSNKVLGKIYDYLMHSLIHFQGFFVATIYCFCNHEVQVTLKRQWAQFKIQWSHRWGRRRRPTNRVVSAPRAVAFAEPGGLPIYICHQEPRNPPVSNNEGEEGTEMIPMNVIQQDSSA

[2] = target: T2, human calcitonin receptor (human, UniProt P30988 25-474); assay: ratio IC50 human calcitonin receptor / IC50 human amylin receptor
T2 construct: whole, on cells; Cell membranes of a stably transfected BHK cell line (Assay VII); also called hCTR; hCT
T2 sequence (looked up): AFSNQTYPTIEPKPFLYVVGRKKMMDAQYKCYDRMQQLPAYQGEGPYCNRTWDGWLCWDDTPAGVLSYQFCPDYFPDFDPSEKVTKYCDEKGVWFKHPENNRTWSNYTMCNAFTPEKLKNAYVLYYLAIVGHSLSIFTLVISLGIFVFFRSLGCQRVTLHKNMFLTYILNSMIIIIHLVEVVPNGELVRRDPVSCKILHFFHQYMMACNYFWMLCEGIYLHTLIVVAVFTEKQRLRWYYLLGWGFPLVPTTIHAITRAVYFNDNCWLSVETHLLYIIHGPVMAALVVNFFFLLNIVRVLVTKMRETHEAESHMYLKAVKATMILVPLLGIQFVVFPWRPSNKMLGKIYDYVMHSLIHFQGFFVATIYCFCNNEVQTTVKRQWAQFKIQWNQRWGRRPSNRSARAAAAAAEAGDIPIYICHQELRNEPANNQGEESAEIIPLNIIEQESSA
In short: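 Membranes (35 ng/μL final) + SPA beads, 50 mM Hepes pH 7.4 buffer with 1 mM CaCl2, 5 mM MgCl₂, 0.1% OA, 0.02% Tween20; 120 min, 25° C, shaking; centrifuged, counted; IC₅₀ by one-site binding competition.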

rat calcitonin receptor [3] = target: T1, rat calcitonin receptor; assay: SPA competition vs 125I-calcitonin, membranes with rat CTR (Assay VIII)
[4] = target: T3, rat amylin receptor (rat calcitonin receptor + rat RAMP 3) (rat, UniProt P32214 25-516; Q9JJ73 23-147); assay: SPA competition vs 125I-rat amylin, membranes with rat CTR + rat RAMP3 (Assay VI)
T3 construct: whole, on cells; Cell membranes of transiently transfected BHK tk'ts 13 cells (Assay VI); also called rAmylin-R; rat amylin 3(a) receptor
T3 sequence (looked up) 1: T1 sequence (looked up)
T3 sequence (looked up) 2: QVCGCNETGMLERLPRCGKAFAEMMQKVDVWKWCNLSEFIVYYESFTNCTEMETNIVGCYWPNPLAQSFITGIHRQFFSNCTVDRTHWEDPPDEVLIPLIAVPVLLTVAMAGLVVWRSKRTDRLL

[5] = target: T4, human amylin 3(a) receptor (human calcitonin receptor + RAMP-3) (human, UniProt P30988 25-474; O60896 24-148, limits assumed); assay: cell-based or functional assay
T4 sequence (looked up) 1: T2 sequence (looked up)
T4 sequence (looked up) 2: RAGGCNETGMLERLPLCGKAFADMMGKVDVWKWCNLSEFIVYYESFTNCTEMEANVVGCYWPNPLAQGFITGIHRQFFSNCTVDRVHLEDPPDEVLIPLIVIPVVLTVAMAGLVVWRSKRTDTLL

[6] = target: T5, human calcitonin receptor (human, UniProt P30988 25-474); assay: cell-based or functional assay
T5 sequence (looked up): T2 sequence (looked up)

B1: N^ε-[2-[2-[2-[[(4S)-4-carboxy-4-(19-carboxynonadecanoylamino)butanoyl]amino]ethoxy]ethoxy]acetyl]Lys[Arg1,Arg17,Pro21,Pro27,His35]-h-amylin (peptide)
peptide: K([AEEA-γGlu-C20 diacid])RCNTATCATQRLANFLRHSSPNFGAIPSSTNVGSHTY-NH2
modifications: disulfide 3-8; N-terminus assumed
SMILES: CC[C@H](C)[C@H](NC(=O)[C@H](C)NC(=O)CNC(=O)[C@H](Cc1ccccc1)NC(=O)[C@H](CC(N)=O)NC(=O)[C@@H]1CCCN1C(=O)[C@H](CO)NC(=O)[C@H](CO)NC(=O)[C@H](Cc1c[nH]cn1)NC(=O)[C@H](CCCNC(=N)N)NC(=O)[C@H](CC(C)C)NC(=O)[C@H](Cc1ccccc1)NC(=O)[C@H](CC(N)=O)NC(=O)[C@H](C)NC(=O)[C@H](CC(C)C)NC(=O)[C@H](CCCNC(=N)N)NC(=O)[C@H](CCC(N)=O)NC(=O)[C@@H](NC(=O)[C@H](C)NC(=O)[C@@H]1CSSC[C@H](NC(=O)[C@H](CCCNC(=N)N)NC(=O)[C@@H](N)CCCCNC(=O)COCCOCCNC(=O)CC[C@H](NC(=O)CCCCCCCCCCCCCCCCCCC(=O)O)C(=O)O)C(=O)N[C@@H](CC(N)=O)C(=O)N[C@@H]([C@@H](C)O)C(=O)N[C@@H](C)C(=O)N[C@@H]([C@@H](C)O)C(=O)N1)[C@@H](C)O)C(=O)N1CCC[C@H]1C(=O)N[C@@H](CO)C(=O)N[C@@H](CO)C(=O)N[C@H](C(=O)N[C@@H](CC(N)=O)C(=O)N[C@H](C(=O)NCC(=O)N[C@@H](CO)C(=O)N[C@@H](Cc1c[nH]cn1)C(=O)N[C@H](C(=O)N[C@@H](Cc1ccc(O)cc1)C(N)=O)[C@@H](C)O)C(C)C)[C@@H](C)O
notes: Acylated analogue of human amylin, extended by one residue at the N-terminus; also called compound 45
Ratio rCT/rAmylin binding (rat calcitonin receptor [1]): 67.1
Ratio hCT/hAmylin binding [2]: 26.8
IC50 (rat calcitonin receptor [3]): 41.8 nM
IC50 [4]: 0.623 nM

B3: N^α1-[(4S)-4-carboxy-4-(19-carboxynonadecanoylamino)butanoyl]-[Glu14,Arg17,Pro21,Pro27,Pro37]-h-amylin (peptide)
peptide: {C20 diacid-γGlu}-KCNTATCATQRLAEFLRHSSPNFGAIPSSTNVGSNTP-NH2
modifications: disulfide 2-7
SMILES: CC[C@H](C)[C@H](NC(=O)[C@H](C)NC(=O)CNC(=O)[C@H](Cc1ccccc1)NC(=O)[C@H](CC(N)=O)NC(=O)[C@@H]1CCCN1C(=O)[C@H](CO)NC(=O)[C@H](CO)NC(=O)[C@H](Cc1c[nH]cn1)NC(=O)[C@H](CCCNC(=N)N)NC(=O)[C@H](CC(C)C)NC(=O)[C@H](Cc1ccccc1)NC(=O)[C@H](CCC(=O)O)NC(=O)[C@H](C)NC(=O)[C@H](CC(C)C)NC(=O)[C@H](CCCNC(=N)N)NC(=O)[C@H](CCC(N)=O)NC(=O)[C@@H](NC(=O)[C@H](C)NC(=O)[C@@H]1CSSC[C@H](NC(=O)[C@H](CCCCN)NC(=O)CC[C@H](NC(=O)CCCCCCCCCCCCCCCCCCC(=O)O)C(=O)O)C(=O)N[C@@H](CC(N)=O)C(=O)N[C@@H]([C@@H](C)O)C(=O)N[C@@H](C)C(=O)N[C@@H]([C@@H](C)O)C(=O)N1)[C@@H](C)O)C(=O)N1CCC[C@H]1C(=O)N[C@@H](CO)C(=O)N[C@@H](CO)C(=O)N[C@H](C(=O)N[C@@H](CC(N)=O)C(=O)N[C@H](C(=O)NCC(=O)N[C@@H](CO)C(=O)N[C@@H](CC(N)=O)C(=O)N[C@H](C(=O)N1CCC[C@H]1C(N)=O)[C@@H](C)O)C(C)C)[C@@H](C)O
notes: also called compound 8
hAmylin-R funct. EC50 (pM) [5]: 82 pM
Ratio hCT/hAmylin funct. [6]: 1.1

Further lines, results first:

Ratio rCT/rAmylin binding (rat calcitonin receptor [1]): 201
Ratio hCT/hAmylin binding [2]: 69.7
IC50 (rat calcitonin receptor [3]): 112 nM
IC50 [4]: 0.558 nM
B2: N^ε1-[(4S)-4-carboxy-4-(19-carboxynonadecanoylamino)butanoyl]-[Arg17,Pro21,Pro27]-h-amylin (peptide)
peptide: K([γGlu-C20 diacid])CNTATCATQRLANFLRHSSPNFGAIPSSTNVGSNTY-NH2
modifications: disulfide 2-7; N-terminus assumed
SMILES: CC[C@H](C)[C@H](NC(=O)[C@H](C)NC(=O)CNC(=O)[C@H](Cc1ccccc1)NC(=O)[C@H](CC(N)=O)NC(=O)[C@@H]1CCCN1C(=O)[C@H](CO)NC(=O)[C@H](CO)NC(=O)[C@H](Cc1c[nH]cn1)NC(=O)[C@H](CCCNC(=N)N)NC(=O)[C@H](CC(C)C)NC(=O)[C@H](Cc1ccccc1)NC(=O)[C@H](CC(N)=O)NC(=O)[C@H](C)NC(=O)[C@H](CC(C)C)NC(=O)[C@H](CCCNC(=N)N)NC(=O)[C@H](CCC(N)=O)NC(=O)[C@@H](NC(=O)[C@H](C)NC(=O)[C@@H]1CSSC[C@H](NC(=O)[C@@H](N)CCCCNC(=O)CC[C@H](NC(=O)CCCCCCCCCCCCCCCCCCC(=O)O)C(=O)O)C(=O)N[C@@H](CC(N)=O)C(=O)N[C@@H]([C@@H](C)O)C(=O)N[C@@H](C)C(=O)N[C@@H]([C@@H](C)O)C(=O)N1)[C@@H](C)O)C(=O)N1CCC[C@H]1C(=O)N[C@@H](CO)C(=O)N[C@@H](CO)C(=O)N[C@H](C(=O)N[C@@H](CC(N)=O)C(=O)N[C@H](C(=O)NCC(=O)N[C@@H](CO)C(=O)N[C@@H](CC(N)=O)C(=O)N[C@H](C(=O)N[C@@H](Cc1ccc(O)cc1)C(N)=O)[C@@H](C)O)C(C)C)[C@@H](C)O
notes: Acylated analogue of human amylin; also called compound 48

hAmylin-R funct. EC50 (pM) [5]: 120 pM
Ratio hCT/hAmylin funct. [6]: 0.9
B4: N^α1-[(4S)-4-carboxy-4-(19-carboxynonadecanoylamino)butanoyl]-[Glu14,Arg17,Pro21,Pro27,Asp35,Pro37]-h-amylin (peptide)
peptide: {C20 diacid-γGlu}-KCNTATCATQRLAEFLRHSSPNFGAIPSSTNVGSDTP-NH2
modifications: disulfide 2-7
SMILES: CC[C@H](C)[C@H](NC(=O)[C@H](C)NC(=O)CNC(=O)[C@H](Cc1ccccc1)NC(=O)[C@H](CC(N)=O)NC(=O)[C@@H]1CCCN1C(=O)[C@H](CO)NC(=O)[C@H](CO)NC(=O)[C@H](Cc1c[nH]cn1)NC(=O)[C@H](CCCNC(=N)N)NC(=O)[C@H](CC(C)C)NC(=O)[C@H](Cc1ccccc1)NC(=O)[C@H](CCC(=O)O)NC(=O)[C@H](C)NC(=O)[C@H](CC(C)C)NC(=O)[C@H](CCCNC(=N)N)NC(=O)[C@H](CCC(N)=O)NC(=O)[C@@H](NC(=O)[C@H](C)NC(=O)[C@@H]1CSSC[C@H](NC(=O)[C@H](CCCCN)NC(=O)CC[C@H](NC(=O)CCCCCCCCCCCCCCCCCCC(=O)O)C(=O)O)C(=O)N[C@@H](CC(N)=O)C(=O)N[C@@H]([C@@H](C)O)C(=O)N[C@@H](C)C(=O)N[C@@H]([C@@H](C)O)C(=O)N1)[C@@H](C)O)C(=O)N1CCC[C@H]1C(=O)N[C@@H](CO)C(=O)N[C@@H](CO)C(=O)N[C@H](C(=O)N[C@@H](CC(N)=O)C(=O)N[C@H](C(=O)NCC(=O)N[C@@H](CO)C(=O)N[C@@H](CC(=O)O)C(=O)N[C@H](C(=O)N1CCC[C@H]1C(N)=O)[C@@H](C)O)C(C)C)[C@@H](C)O
notes: also called compound 11

hAmylin-R funct. EC50 (pM) [5]: 72 pM
Ratio hCT/hAmylin funct. [6]: 1
B5: N^α1-[(4S)-4-carboxy-4-(19-carboxynonadecanoylamino)butanoyl]-[Asp14,Arg17,Pro21,Pro27,Pro37]-h-amylin (peptide)
peptide: {C20 diacid-γGlu}-KCNTATCATQRLADFLRHSSPNFGAIPSSTNVGSNTP-NH2
modifications: disulfide 2-7
SMILES: CC[C@H](C)[C@H](NC(=O)[C@H](C)NC(=O)CNC(=O)[C@H](Cc1ccccc1)NC(=O)[C@H](CC(N)=O)NC(=O)[C@@H]1CCCN1C(=O)[C@H](CO)NC(=O)[C@H](CO)NC(=O)[C@H](Cc1c[nH]cn1)NC(=O)[C@H](CCCNC(=N)N)NC(=O)[C@H](CC(C)C)NC(=O)[C@H](Cc1ccccc1)NC(=O)[C@H](CC(=O)O)NC(=O)[C@H](C)NC(=O)[C@H](CC(C)C)NC(=O)[C@H](CCCNC(=N)N)NC(=O)[C@H](CCC(N)=O)NC(=O)[C@@H](NC(=O)[C@H](C)NC(=O)[C@@H]1CSSC[C@H](NC(=O)[C@H](CCCCN)NC(=O)CC[C@H](NC(=O)CCCCCCCCCCCCCCCCCCC(=O)O)C(=O)O)C(=O)N[C@@H](CC(N)=O)C(=O)N[C@@H]([C@@H](C)O)C(=O)N[C@@H](C)C(=O)N[C@@H]([C@@H](C)O)C(=O)N1)[C@@H](C)O)C(=O)N1CCC[C@H]1C(=O)N[C@@H](CO)C(=O)N[C@@H](CO)C(=O)N[C@H](C(=O)N[C@@H](CC(N)=O)C(=O)N[C@H](C(=O)NCC(=O)N[C@@H](CO)C(=O)N[C@@H](CC(N)=O)C(=O)N[C@H](C(=O)N1CCC[C@H]1C(N)=O)[C@@H](C)O)C(C)C)[C@@H](C)O
notes: also called compound 10
